Starred links: 1 amine or outer side, 2 acyl side, 3 side chain; linkers in the order of their positions; H or OH if unused. Non-standard residues stand in square brackets, D forms with d. NHCH2(1,3-C6H4)CH2CO = O=C(Cc1cccc(CN[*:1])c1)[*:2]; Ahp = NCCCCCCC(=O)O; βAla = NCCC(=O)O

In assay [1] the target is T1, blood platelet receptor glycoprotein Ib-IX-V complex (GPIb) (human, UniProt P07359 17-652; P13224 26-206; P14770 17-177; P40197 17-560). In words: cell-based or functional assay.
Assay [2] has as its target T1, blood platelet receptor glycoprotein …. In words: inhibition of static adhesion of human platelets to coated vWF-A1; grade C = IC50 lower than 1 µM. The procedure:
(§1) Platelet rich plasma was carefully transferred again to fresh containers, PGE1 (0.5 μg/ml, Sigma) was added and the suspension was allowed to rest for 5 min. This was followed by another centrifugation step for 15 min at 360 g. The supernatant was discarded and the cell pellets were carefully resuspended in tyrode buffer (NaCl, 137 mM (Sigma S-3014); KCl, 2.7 mM (Sigma P-9541); NaHCO₃,12 mM (Riedel deHaen 31437); NaH₂PO₄×2H₂O, 0.36 mM (Merck 6345); MgCl₂×6 H₂O, 1 mM (Sigma M-2670); Hepes, 10 mM (Sigma H-1016); glucose, 5.6 mM (Merck 8342); BSA, 0.1% (Sigma A7906)), and PGE1 (0.25 μg/ml) was added. After 5 min of resting the suspension was spun down for 15 min at 300 g. The supernatant was discarded and the pellets were carefully resuspended in TBS buffer (Tris-HCl, 50 mM (Fluka 93371); NaCl, 120 mM (Sigma S-3014); KCl, 2.7 mM (Sigma P-9541); CaCl₂, 0.05 mM (Sigma C-3306); MgCl₂×6 H₂O, 2 mM (Sigma M-2670); BSA, 0.1% (Sigma A7906); pH 7.4). The platelet count was adjusted to 2×10⁵ cells/μl, and the suspensions from individual donors were pooled at this stage. The platelets were allowed to rest for 30 min at room temperature before calcein AM (2.5 μM per 2×10⁵ cells/pi (Molecular Probes C-3099)) was added. This was followed by 15 min incubation in the dark. Cells were diluted to 5×10⁴ cells/μl and ReoPro (3 μg/ml (Centocor B. V., Leiden, N L)) was added, followed by a 10 min incubation period in the dark before adding the platelets to the assay plates.
96 well plates (Greiner hb, black, clear bottom, F, 655097) were coated with human recombinant vWF-A1 domain (1.5 μg/well, AA 475-706, expressed in E. coli) in Tris buffer (pH 7.4; Tris-HCl, 25 mM; NaCl, 150 mM) and incubated for 1 h at room temperature. After washing the wells 3× with TBS, blocking buffer (TBS with 5% BSA) was added followed by an incubation for 1 h. The wells were washed again 3× with TBS before 200 μl TBS were added to each well, preventing them from drying out. TBS was flicked out and serial dilutions of the test compound were added. The washed and calcein AM labeled thrombocytes were added to the wells (2.5×10⁶ cells/well). Following an adhesion period of 1.5 h in the dark the wells were washed 3× with TBS. Measurement of fluorescence per well was performed in a SpectraMax M5 reader (Molecular Devices). From the raw data % inhibition and IC₅₀ values were calculated.

Assay [3] shares this target. In words: inhibition of static adhesion of human platelets to coated vWF-A1; grade A = showed activity at 10 µM. As to the method: as §1, with “The platelet count was adjusted to 2×10⁵ cells/μl, and the suspensions from individual donors were pooled at this stage. The platelets were allowed to rest for 30 min at room temperature before calcein AM (2.5 μM per 2×10⁵ cells/pi (Molecular Probes C-3099)) was added. This was followed by 15 min incubation in the dark. Cells were diluted to 5×10⁴ cells/μl and ReoPro (3 μg/ml (Centocor B. V., Leiden, N L)) was added, followed by a 10 min incubation period in the dark before adding the platelets to the assay plates.” left out
96 well plates (Greiner hb, black, clear bottom, F, 655097) were coated with human recombinant vWF-A1 domain (1.5 μg/well, AA 475-706, expressed in E. coli) in Tris buffer (pH 7.4; Tris-HCl, 25 mM; NaCl, 150 mM) and incubated for 1 h at room temperature. […] Measurement of fluorescence per well was performed in a SpectraMax M5 reader (Molecular Devices). From the raw data % inhibition and IC₅₀ values were calculated.

T1 sequence (P07359 17-652, chain 1 of 4): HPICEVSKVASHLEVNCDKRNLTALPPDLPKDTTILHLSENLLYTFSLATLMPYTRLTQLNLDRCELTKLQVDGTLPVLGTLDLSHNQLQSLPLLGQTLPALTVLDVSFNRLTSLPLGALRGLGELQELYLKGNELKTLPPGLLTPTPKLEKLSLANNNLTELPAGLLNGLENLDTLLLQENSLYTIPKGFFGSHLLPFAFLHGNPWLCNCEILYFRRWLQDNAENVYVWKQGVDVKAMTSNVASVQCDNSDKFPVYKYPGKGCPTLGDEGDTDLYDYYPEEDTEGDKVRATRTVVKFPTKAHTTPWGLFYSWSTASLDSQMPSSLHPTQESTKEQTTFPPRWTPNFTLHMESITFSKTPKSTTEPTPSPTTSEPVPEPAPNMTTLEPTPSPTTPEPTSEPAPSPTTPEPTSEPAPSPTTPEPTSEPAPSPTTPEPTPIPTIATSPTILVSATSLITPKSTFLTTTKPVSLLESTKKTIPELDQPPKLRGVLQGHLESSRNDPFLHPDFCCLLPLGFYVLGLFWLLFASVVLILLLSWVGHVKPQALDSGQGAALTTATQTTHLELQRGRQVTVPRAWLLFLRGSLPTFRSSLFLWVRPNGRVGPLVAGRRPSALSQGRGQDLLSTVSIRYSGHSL
T1 sequence (P13224 26-206, chain 2 of 4): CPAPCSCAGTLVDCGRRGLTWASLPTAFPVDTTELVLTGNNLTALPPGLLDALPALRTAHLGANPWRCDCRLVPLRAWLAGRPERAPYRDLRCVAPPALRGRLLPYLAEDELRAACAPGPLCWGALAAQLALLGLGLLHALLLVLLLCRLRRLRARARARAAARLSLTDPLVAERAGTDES
T1 sequence (P14770 17-177, chain 3 of 4): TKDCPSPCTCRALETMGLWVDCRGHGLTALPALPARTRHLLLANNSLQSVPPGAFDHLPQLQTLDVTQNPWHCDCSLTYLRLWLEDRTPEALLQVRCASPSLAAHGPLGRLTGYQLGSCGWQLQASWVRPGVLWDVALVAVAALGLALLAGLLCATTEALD
T1 sequence (P40197 17-560, chain 4 of 4): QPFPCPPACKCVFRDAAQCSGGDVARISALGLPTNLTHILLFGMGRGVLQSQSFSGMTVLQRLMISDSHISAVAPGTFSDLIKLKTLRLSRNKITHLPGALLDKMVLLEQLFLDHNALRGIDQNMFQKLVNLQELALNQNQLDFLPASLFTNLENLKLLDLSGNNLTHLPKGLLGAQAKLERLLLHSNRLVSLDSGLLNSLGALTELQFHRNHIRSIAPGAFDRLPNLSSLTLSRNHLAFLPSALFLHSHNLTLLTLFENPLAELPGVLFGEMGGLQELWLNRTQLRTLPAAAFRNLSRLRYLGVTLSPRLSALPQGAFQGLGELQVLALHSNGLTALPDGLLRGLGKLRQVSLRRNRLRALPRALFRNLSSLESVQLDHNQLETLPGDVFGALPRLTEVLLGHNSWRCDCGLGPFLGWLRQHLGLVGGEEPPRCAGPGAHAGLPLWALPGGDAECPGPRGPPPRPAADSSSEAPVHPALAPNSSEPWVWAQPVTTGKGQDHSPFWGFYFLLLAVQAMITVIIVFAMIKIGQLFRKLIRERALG

B1: Cyclo[Leu-His-Asn-Leu-NH-X4-X3-X2-X1-CO-Thr-Glu-Arg-Met-Ala] of example 2 (peptide)
peptide: cyclo(LHNL[NHCH2(1,3-C6H4)CH2CO]TERMA)
SMILES: CSCC[C@@H]1NC(=O)[C@H](CCCNC(=N)N)NC(=O)[C@H](CCC(=O)O)NC(=O)[C@H]([C@@H](C)O)NC(=O)Cc2cccc(c2)CNC(=O)[C@H](CC(C)C)NC(=O)[C@H](CC(N)=O)NC(=O)[C@H](Cc2c[nH]cn2)NC(=O)[C@H](CC(C)C)NC(=O)[C@H](C)NC1=O
As to B1, the “IC50 (average value), ristocetin-induced agglutination of human whole blood, impedance aggregometry” value in assay [1] was less than 1000 nM. The same molecule returned an IC50 in assay [2] of less than 1000 nM.

B2: Cyclo[Leu-His-Asn-Leu-NH-(CH2)2-CO-Gly-Thr-Glu-Arg-Met-Ala] (peptide)
peptide: cyclo(LHNL[βAla]GTERMA)
SMILES: CSCC[C@@H]1NC(=O)[C@H](CCCNC(=N)N)NC(=O)[C@H](CCC(=O)O)NC(=O)[C@H]([C@@H](C)O)NC(=O)CNC(=O)CCNC(=O)[C@H](CC(C)C)NC(=O)[C@H](CC(N)=O)NC(=O)[C@H](Cc2c[nH]cn2)NC(=O)[C@H](CC(C)C)NC(=O)[C@H](C)NC1=O
Consider B2, for which the binding result in assay [3] is on record as “binds”.

B3: Cyclo[Leu-His-Asn-Leu-NH-(CH2)6-CO-Val-Glu-Arg-Met-Ala] (peptide)
peptide: cyclo(LHNL[Ahp]VERMA)
SMILES: CSCC[C@@H]1NC(=O)[C@H](CCCNC(=N)N)NC(=O)[C@H](CCC(=O)O)NC(=O)[C@H](C(C)C)NC(=O)CCCCCCNC(=O)[C@H](CC(C)C)NC(=O)[C@H](CC(N)=O)NC(=O)[C@H](Cc2c[nH]cn2)NC(=O)[C@H](CC(C)C)NC(=O)[C@H](C)NC1=O
Regarding B3, the binding result in assay [3] is recorded as “binds”.

Source of the values: patent US20140011734A1 (Sanofi, published 2014).
